Reference: patent US20020128189A1 (Harvard, published 2002)
Ends that are not written are not given here.

B1: LexA-E12539-654 (other, human, UniProt P15923 539-654, looked up)
chain: PPEQKAEREKERRVANNARERLRVRDINEAFKELGRMCQLHLNSEKPQTKLLILHQAVSVILNLEQQVRERNLNPKAACLKRREEEKVSGVVGDPQMVLSAPHPGLSEAHNPAGHM
notes: also called LexA-E12 lacking this region; not shown: LexA encoded by the LexA gene of pEG202, N-terminal fusion partner
B2: LexA-E12477-530 (other, human, UniProt P15923 477-530, looked up)
chain: LexA-RPPDSYSGLGRAGATAAASEIKREEKEDEENTSAADHSEEEKKELKAPRARTSP
notes: not shown: LexA encoded by the LexA gene of pEG202, N-terminal fusion partner
B3: LexA-Oct1 (amino acids 294-429 of human Oct 1, containing the POU domain) (other, UniProt P14859 294-429, looked up)
chain: TFKQRRIKLGFTQGDVGLAMGKLYGNDFSQTTISRFEALNLSFKNMCKLKPLLEKWLNDAENLSSDSSLSSPSALNSPGIEGLSRRRKKRTSIETNIRVALEKSFLENQKPTSEEITMIADQLNMEKEVIRVWFCN
notes: range 294-429; Bait for the specificity test; not shown: LexA encoded by the LexA gene of pEG202, N-terminal fusion partner
B4: LexA-Id3 (all of the Id3 coding sequence) (other, rat, UniProt P41138 1-119, looked up)
chain: MKALSPVRGCYEAVCCLSERSLAIARGRGKSPSAEEPLSLLDDMNHCYSRLRELVPGVPRGTQLSQVEILQRVIDYILDLQVVLAEPAPGPPDGPHLPIQTAELTPELVISKDKRSFCH
notes: Bait for the specificity test; not shown: LexA encoded by the LexA gene of pEG202, N-terminal fusion partner
B5: Full-length human UBCH5 (interactant in the yeast two-hybrid interaction trap) (enzyme, not shown: large carriers)
chain: not shown

How the values were obtained:
[1] = biological target: T1, AD-UBCE2A (full-length UBCE2A fused to the B42 transcription activation domain) (rat, UniProt P63279 1-158 (human entry)); test: yeast two-hybrid interaction trap
T1 construct: also called AD-UBCE2A library isolate; UBPCE2A
T1 sequence (P63279 whole entry, the tested form may be a part): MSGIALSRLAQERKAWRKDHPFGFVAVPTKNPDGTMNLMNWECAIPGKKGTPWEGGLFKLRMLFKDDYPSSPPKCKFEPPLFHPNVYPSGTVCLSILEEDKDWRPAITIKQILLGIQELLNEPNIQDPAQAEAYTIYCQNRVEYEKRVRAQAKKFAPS

[2] = biological target: B5; test: yeast two-hybrid interaction trap
[3] = biological target: T1, AD-UBCE2A (full-length UBCE2A fused to …); test: yeast two-hybrid interaction trap, beta-galactosidase
Source text: In order to assess the specificity of interaction and to map the interaction domains, cells of the yeast strain EGY48/pSH18-34 were transformed with the indicated bait constructs and library/interactant plasmids, and plated on Ura⁻ His⁻ Trp⁻ glucose plates. The bait constructs used in the specificity test were: LexA-Id3, which contains all of the Id3 coding sequence; LexA-c-Myc, which contains the C-terminal 137 amino acids of mouse c-Myc; LexA-Max, which contains all of the rat Max coding sequences; and LexA-Oct1, which includes amino acids 294-429 of human Oct 1 (containing the POU domain). Eight to twelve colonies from each bait/interactant combination were picked and plated in duplicate on Ura⁻ His⁻ Trp⁻ X-gal plates containing either 2% glucose or 2% galactose, 1% raffinose, and the color was assessed after 48 hours.
The specificity of the interaction partners was further examined by transforming yeast harboring expression plasmids encoding LexA fusions with various known HLH proteins. No interaction was detected with the HLH protein, Id3 (Christy et al., 1991, Proc. Natl. Acad. Sci. USA 88:1815-1819), the bHLH-leucine zipper protein, max (Blackwood et al., 1991, Science 251:1211-1217), or the homeodomain protein, Oct 1 (Sturm et al., 1988, Genes & Dev. 2:1582-1599); only weak promoter activity was discerned following introduction of LexA-myc. […]

[4] = biological target: T2, LexA-E12477-654 (amino acids 477 to 654 of human E12 fused to LexA) (human, UniProt P15923 477-654); test: yeast two-hybrid interaction trap
T2 construct: not shown: LexA encoded by the LexA gene of pEG202, N-terminal fusion partner
T2 sequence (looked up): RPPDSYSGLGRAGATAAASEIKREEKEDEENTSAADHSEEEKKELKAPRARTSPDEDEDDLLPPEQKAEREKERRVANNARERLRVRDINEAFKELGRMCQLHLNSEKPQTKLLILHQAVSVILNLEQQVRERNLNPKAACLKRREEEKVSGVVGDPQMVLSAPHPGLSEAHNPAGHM

B1: no binding [1].

B2: binds [1]; no binding [2].

B3: no binding [3].

B4: no binding [3].

B5: no binding [4].
